Residue numbers refer to the chain shown, from its start. Numbers in names are those of the source.
Substrate: Nc1ncnc2c1ncn2[C@@H]1O[C@H](COP(=O)(O)OP(=O)(O)OP(=O)(O)O)[C@@H](O)[C@H]1O
Experiment: malachite green ATPase assay
Assay type: biochemical, Arabidopsis thaliana
Details: ATP 0-8 mM, 10 mM MgCl2, 25 °C
Excerpt: malachite green ATPase assay on AtABCG1

[1] = Fos-Choline-14, EQ/HA background subtracted
[2] = Fos-Choline-14, hydrolysis-deficient mutant used as background control

B1: AtABCG1 (Arabidopsis thaliana) (protein)
chain: MARIVAANDDDSMELNTISSIHDSTLGQLLKNVSDVRKMAIGDETPVHESLNQDYNDGYMRTVPFVLSFDNLTYNVSVRPKLDFRNLFPRRRTEDPEIAQTARPKTKTLLNNISGETRDGEIMAVLGASGSGKSTLIDALANRIAKGSLKGTVKLNGETLQSRMLKVISAYVMQDDLLFPMLTVEETLMFAAEFRLPRSLPKSKKKLRVQALIDQLGIRNAAKTIIGDEGHRGISGGERRRVSIGIDIIHDPILLFLDEPTSGLDSTSAFMVVKVLKRIAQSGSIVIMSIHQPSHRVLGLLDRLIFLSRGHTVYSGSPASLPRFFTEFGSPIPENENRTEFALDLIRELEGSAGGTRGLIEFNKKWQEMKKQSNRQPPLTPPSSPYPNLTLKEAIAASISRGKLVSGGESVAHGGATTNTTTLAVPAFANPMWIEIKTLSKRSMLNSRRQPELFGIRIASVVITGFILATVFWRLDNSPKGVQERLGFFAFAMSTMFYTCADALPVFLQERYIFMRETAYNAYRRSSYVLSHAIVSFPSLIFLSVAFAATTYWAVGLDGGLTGLLFYCLIILASFWSGSSFVTFLSGVVPSVMLGYTIVVAILAYFLLFSGFFINRNRIPDYWIWFHYMSLVKYPYEAVLQNEFSDATKCFVRGVQIFDNTPLGELPEVMKLKLLGTVSKSLGVTISSTTCLTTGSDILRQQGVVQLSKWNCLFITVAFGFFFRILFYFTLLLGSKNKRR
notes: full-length half-size transporter, N-terminal tag (CBP, His detected) kept, expressed in Pichia pastoris X33, purified in Fos-Choline-14, 86 kDa with tag, homodimer
Km [1]: 1800 ± 100 µM | Vmax [1]: 0.0188 µmol/min/mg

B2: AtABCG1 (Arabidopsis thaliana; E259Q/H291A) (protein)
chain: B1 chain with E259Q, H291A
notes: as for B1
Km [2]: 700 ± 400 µM | Vmax [2]: 0.0017 µmol/min/mg

Reference: article PMC6684660, “ABCG1 contributes to suberin formation in Arabidopsis thaliana roots” (Scientific Reports, 2019)
